In the NTF2 design screens of Basanta et al. (2020) one finds protease stability score data, which are given here for 47 sequences.

The nature of this data set: protease stability score; higher = more stable; yeast display proteolysis, trypsin and chymotrypsin.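 Note: relative to predicted unfolded state with 0 unfolded-like and 1 meaning tenfold more protease.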
The sequence “DHEEEKAVEIARLLLEAELTGDWKTFSHLADPHTRWIERIDGREDSRHGMEEVVRIIIERLKEIRMEVRIRRKRVVGDKVELDGELIMRINGVEIRVEVRIIIIIVGDKVKFIEITIH” yielded a protease stability score of 0.83.

On to “DHEEEKLKESLDRLEDINRTGDWHKIHDMLDPHVRVLVNGRKHHGRETATHIYREWRITDIQFKDIRLIGDKVHIHMESRVSVNGREHSVKSELILIKVDGQWYMHAEQFL”, for which the protease stability score came out at 1.05.

With “DHEEELAKSMLEIWREVVWTGDEDSLQKLLDPDARYHLVVDGKRVERIGMEHIRKELHRLFREWRIEDMHIHEIRVVDGVAHTRTRLVVNIDGRIVDTETVINVVSFDGRVRSVTVDIR”, the protease stability score was 1.25.

With “DHEEEQVRLAFEIFKTLQETGDEELLHHFFDPNARSDVDGREVVGRHAVEEWQRDLGVDHIHVHKFTFIDGRVEMHFTYTQGDKVIKVHIYVHKVDGKWDMHRIHVR”, the protease stability score stood at 1.24.

“DHEEHLSHIALRESMEYLETGDPRKYTELMDPNVKLRVDINGKQIEFHGREEASRFMEHVQHEIKGARIETHSEDTQGNKIHMDLKLLINGKESKLIIIALKINGRWLVTSMEVHVK” returned a protease stability score of 1.88.

Turning to “DHEEHYSRIAVQEVLHRMLTGDEESLVKLADPHTRMTIGDKELHGWELVFEFLRDWVHKFKNIRLHIHQHEVQGDKIHIEIRVLIDGKEQDVKIHAEKIDGKWIYRQSHFR”, the protease stability score was 0.751.

For the sequence “DHEEKAKKFFDDLLRAVKHNDETQLERLFDKNVRFNVGEHNFRGREEFVKMVRTMVEQVDHVTATIVSIETNGDKVNLVAQWDMSHNGNSKRIRVLVVLDDNNGRVVAREMSEK”, the protease stability score was determined as 1.98.

The sequence “DHEEKEARRLLELIWKLIQTGDEHFLRELMDPHARISIDGVRLHGMEDIREFLHRYFKHHGYRWHRQRETEKHVVNGVQILFGEHDGEVDGKRDNTRSRLIFLVIDGKLQELEVNNV” had a protease stability score of 0.855.

For “DHEEKHLEHFLHLITHLEHTGDERTLEKLVDPHVRHEFNGKELHGRERAVRWSEELRQKMGADHWSIKRVNVFDGVVHLHTELEVNGVRVHFHIDVRVVDGRVKHIKIRNE”, the protease stability score was determined as 0.861.

For the sequence “DHEEKHMIKIARLILLLWFTGDEDTFSRLADPNVRVIIIWNGKEIHSHGMERFSEDRKRHEEEMRLKDFRIDEVRAVGDKIHMRVTIHLIQGDKEREIDLEIRIVLVNGKLKTIEFIFH”, the protease stability score worked out at 2.63.

Consider “DHEEKIWEEVLKELVHQFLTGDWKTRTQMADPEVRVESRVGDKFVRMHGREYLRMLMEFLHEQIKNATVTLHSFRVVDGRNEIKLRAEIGDKTHEIDMHYFVVDGRIKSLHVRTWEL”, for which the protease stability score came to 1.05.

“DHEEKKAKELLHLIVELLITGDEDTLSRLLDPNTRWIINGRHLHGMHVFEEWVRRLKEQYKGVTVHIEIEDSKVVGEKARSEIRLIINIGDKVHDIESRLEIVVIDGKMRSLRFEFK” came in with a protease stability score of 1.19.

Take “DHEEKLSEDISRFLLELYLTGDPERLAKNADPNTKLIIDINGRHEDIHGREYIYKWSLDWFRKAGVTRVEFDLRSMDVQGEKAVIHGVNRVGDKDRHMTEIWIVVNGKLKEVRVKLE”: the protease stability score amounted to 1.28.

“DHEEKLYELEIRLLQEIVETGDEETSHRLADPHARLNINGRHLVGREHFREFVHKIKGARLDIEEVRVQGDKVIIHGRWIQGDKELDVDFISRKIDGKWKFHSIHVH” displayed a protease stability score of 1.33.

“DHEENMLKLMVTLWTQSLRTGDEDTLFRLMDPHARDVVGDKEFHGREEVKHHLRELLLEIRIEDSHVEDFRVYDGVAEIDTRQHGIFNGKRLEYETRILVLKVNGRWIFTHVERR”: the protease stability score was 0.592.

Sequence “DHEERIISEQLKIELESTATGDESTLEELVDPTTKININGKHLHGRESILKLLVEYARRADHIEIRPEHVEVYGNKLIIHGEIRIEVGDKRHSTKVLLILRKVNGRWRLTEEKWD” showed a protease stability score of 1.65.

Consider “DHEERNIEDFLRELLHSLITGDEHTYRRLMDPNMQLFVDGRTFVGWKEALKWYQEILRRIDVIENIEIEQFSVFDGRVFVRVHLHMRVGDKTHHSFVHILLVKINGKWRLEEHEVV”, for which the protease stability score turned out to be 1.79.

“DHEFEDSKRATEETLHLIETGNEEKIRQLADPHVRIIIFINGRDIHLHGREELSRHISEMGVDHRRWTELRLFEGHAENDVKVNFNGREFKVIIFVRKVNGRWVIERLEVHVI” displayed a protease stability score of 2.25.

Regarding “DHEHEEFEENLEHFEHHMKTGDFELLLKLADPHVKIHVNGRDYHGWEELKRVLETLGISKVKVEFHRIHLINGVAFNDGKMEVNGVHTKTHYVAKKVNGRWFMRSMEMN”, the protease stability score was found to be 0.775.

In turn, “DHEHRELRELIHRIEKNIRTGNWDVVEKMLDPHARIDIDGKEIHGRDRLVEEMVKQWEKMGVDHIEIKLEDYKVSENEVYLDMIFVIRVGDKVIFIDSHIISRKIDGRWIIHSIHFR” displayed a protease stability score of 1.95.

On to “DHEHRFMEETLERLLHVWRTGDESLIHELADPEARSDVNGREHHGRERFVDTVRHLGVKHVELKDWTIQGEKVHLSTEVDVGDKTFDFEIIIYKINGKWLIHEMRVK”, for which the protease stability score came to 0.945.

The sequence “DHEKENIERSSRIMLRLYETGDEDELRKLADPHARSEVGEFEYHGREEVFRWLNLLIRELGAKHITIRDIKYVGNKLTLHMISHVDGRELNLEIWAIKIDGQWLLTTVHHK” displayed a protease stability score of 0.69.

Consider “DHEKEVAERIMRLLFHQLETGDWRLESKMADPNVRLNFNGVHLHGMETSVKWLEELRIHSFRIRDMRIDIINGVAVADNDTETEITFDGVRIRTRTHLHIFVSKFDGRWHVSEIEIRIR”, for which the protease stability score worked out at 0.094.

In turn, “DHEKKEIEDLLRELFEALFTGDEHILHRLLDPRTKLVINGRNYHGRETVRRFVLHIRIFFHHIEIESSEIQGEWIHLHIRVDFREEQGDKERRIDTHAVMHMLKVNGRWVIHEIVLH” returned a protease stability score of 1.54.

Sequence “DHEREDMRRFVQEVLRVIETGDEDIYMRLLDPHYKVDFNGREIIGREELLRFFRDLGVDRIEADKEDVRSQGDKVITNTHITVNGRRIEMRVIVIKIDGQWVLHSLEFR” registered a protease stability score of 1.2.

“DHETRWLRHVLKIWDHMVETGDWEKSERLADPNTKLVIDGVDLHGRRDYNRHMRELRVHHTEINDVELTNIGDKVHLYREVDYDITVDGRRIITHIELFLIIRKVDGRWILEEQEVNFR”: the protease stability score is 0.236.

For “DHEVAKTMMEEWQKALENGDDKKLKELYDPDGEWEADDEQDQGTEVIEKLMEKVKKQGLKFQVRKAKVEGDKFTVVYDLHVGNKTATFEVEVHVEGGRIKKVKAKADEEAKKLITEG”, the protease stability score worked out at 2.05.

In turn, “DHHEEASHRVIEILLRAHRTGDWHELLRMMDPNTMLIVGDKTFHGREELEKILRHFVERAITIHDIKIESVENQGDKIHVHGHIDKRVNGRQVSIETEIDILKVNGRWFISTLRYH” registered a protease stability score of 1.89.

The sequence “DHHEEIMVTIMELLVRWLETGDEKSLVELLDPDVRHDVNGVDLHGREHVSRWMREHLERYDHLEVEITHIEVQGDKVHLDGTLILIFNGRNVVMKVHIHTIIVNGRAHELRFRTE” showed a protease stability score of 0.698.

Sequence “DHHEELRHWFLEIYRRIMITGDEKELEKLIDPHAKLRINGREHVGMEYIQRIFDLLRHEIRFKDMDIREYHLVDGQIDDHSVLTLHINGKEVTRETRIVNRKVNGRWKIEVESIH” gave a protease stability score of 0.622.

The sequence “DHHEELVERIAREWIHAWKTGDEKRLRELMDPHVRMNFNGQELHGRELVTNFLHEFLERFDHQEHHIKRFTVVNGVMHIDGELDLNFDGRRYRHRVHIHIFVFDGRVKHVEIEIR” gave a protease stability score of 2.29.

In the case of “DHHEETIRHFAKLWVELWLTGDEKSLQTLADPHVRVHINGVDLHGRDAIHHFLRRIEERYKGLRIDVEEQRIVNGRTEMITEIHIGDKVWRTRLHVVVVDGRIHELSFKDE”, the protease stability score was 2.25.

Sequence “DHHEHDTKILMDLWLHALTTGDWRLLAELADPHVRFEVEFDGRRIEYHGRHSFEEHMKRLVDKIKNLTLTIHDVRVIGDFVHIEGETTWDGRTSSIHIHLKVINGRVKHIKVEER” registered a protease stability score of 1.92.

“DHHEKHLKHIFHLYIRAWITGNEKEMQDLADPNVRMHVGDKHVHGREEVRRLHHHLLTHIRLDHFHIDDHRVYDGVVEVKGIEDHNVNGQRHRFESTWIIVIVNGRIEEIEIRVH” showed a protease stability score of 1.16.

As to “DHHKESSEYLVRDYYEYIETGDFKRMEELADPNMKVVVGDKTHHGRESLSVVYLRLGIKHWDIKRIHNIGNKIRIHSTIFVDGVDMHEHSHAEKIDGRWLLRELSFE”, the protease stability score came out at 0.319.

As to “DHHRKETEELAELFFENLLTGNWEIHEHLLDPDVKLEQGDKINVGRESYSEWLEYVKKHIRIRDWKIRHVHVFNGRVHLETEVHMEYGDKHHVVDMHISIDVINGRFKTVRIEIK”, the protease stability score was found to be 2.1.

For the sequence “DHIDEDAAHVSRVLLTLLRTGDEETLFQLLDPNMRVDVNGVELHGREEWWKHVYRRNKELGMEVKYHLHKLTVINGVAHIDFRIEIYIGDKRIEYRHEVHIEKINGVWLVREIREG”, the protease stability score was found to be 1.47.

For “DHIEEDIEEAERIMKEVNHTGDWETLERNFDPNVRLDIDGRTFHGMETYTKWFREIRIEDSRVKSIELQGDKIRYDTILHGIINGKRDTVKTHLIAVKVNGRWFIKVYSLH”, the protease stability score was determined as 1.05.

“DHIEEELIRWLELLRNALETGDEELVVKLVDPRYRLIIGDKHHHGMEEWSKILKEESERVKNARIELHLRHLRLFNGQADMEVENVVRYNGVTIIIDVRIHLLKVNGRWKEREVREG” showed a protease stability score of 1.33.

“DHKDELAHRLVEHILKLLLTGDEEHWYELLDPNVRIHINGRNSVGREEALKVIQFFWELLGVKHIELKEVRFQGDKVHSDTRLDINGVKSRVRIEVIIINGRIDEVRIDIR”: the protease stability score stood at 2.25.

“DHKDELNEHIMKVWIHFLETGDEEFLYDLMDPHARLDFNGREIHGREILYEFWKRWNKRFPNRIDFLDSVRVIGDKVEMDTTLRIDGVRHETEIRIHVYDGKLKHIEYHIR” yielded a protease stability score of 1.4.

“DHKEARDVAQTMMHLLKHGDFEQIVRNADPNAHFVVGDKEYHGRDNLRKVLKRLHDQVDHISFRTYKVDEDTAKLDATVQINGRNYRMDVLVHFHNGRIKDLNIKVTDEDTQREADK”: the protease stability score is 1.57.

Take “DHKTKMREHAVHEWFDDVITGDERRIREYADPNVRIDIDINGRHEELHGRELFSEILTRFKNVQVEIKHVNHIGDKLHIHFRVHIDGREENVIIIMHKVDGKWVTKRFIIDDA”: the protease stability score was 1.05.

In the case of “DHLDERAERFFLKLVENLLTGNEEIWEELIDPNMRFHAENHSDHGWEVIRRWMERLIERFDHIEIRVHRLRFQGDKVHSDVRVHYEQGDKREEINMHIIIIIINGRIHTIRLIIL”, the protease stability score is 0.308.

In turn, “DHLEDDLDHYIRVLIKSWQTGDEELTEKLIDPRVRVEVGDKEFHGRKIFSEIAVHWRIKHHTIEHINTVGDKATIHSHVVLHFDGREITTTTIYFIEKVNGKWLLKSMHIQ” came in with a protease stability score of 2.5.

In turn, “DHLEDTFRELTRILWEALHTGDWEIRRHYADPNARFQMHINGVELRDHGMDQLSRKYEEWYRRVDHYEVRIKDRRYQGDKMIIHVHIRVKINGKEIHYDVILYIIVVNGRIEEESEEVR” had a protease stability score of 1.34.

In turn, “DHLEEDSERAKELFIKVFKTGDEHIIKEMIDPHARLDWNGQEFHGREEVTRVMHELLEEYGIKHLHVRRFKVVNGRVEIDTELRQGDYRDESIIIILKVNGKWLIHSIEFK” came in with a protease stability score of 2.12.
